This passage reports Kd, koff and kon results from patent US20240343810A1 (published 2024).

The target in experiment [1] is T1, Biotinylated human ICOS protein (human, UniProt Q9Y6W8 21-140, limits assumed, biotinylated (sites not given)).
T1 construct: Captured on the NLC chip in the avidity SPR
T1 sequence: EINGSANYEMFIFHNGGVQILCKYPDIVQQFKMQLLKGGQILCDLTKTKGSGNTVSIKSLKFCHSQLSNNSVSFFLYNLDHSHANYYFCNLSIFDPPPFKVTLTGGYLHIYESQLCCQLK
The experiment is described as follows: SPR ProteOn avidity format, biotinylated human ICOS on NLC chip, antibody analyte; apparent KD from equilibrium, 25 C. Here is the method: (§1) Biotinylated human ICOS protein diluted at 7.5 μg/mL in running buffer (1× HBS-EP+ Buffer Technova, cat. No. H8022) was captured on a NLC sensor chip (Bio-Rad, cat No 1765021). The surface was then blocked using biocytin (Sigma Aldrich, cat No B1758) at 1 mg/mL.
(§2) The assay was carried out at 25° C.
(§3) The buffer injection (i.e. 0 nM) was used to double reference the sensorgrams. The analysis was carried out using the equilibrium model inherent to the ProteOn's analysis software for each mAb² construct.

For experiment [2], the target named is T1, Biotinylated human ICOS protein. The experiment can be described thus: SPR ProteOn avidity format, biotinylated human ICOS on NLC chip, antibody analyte, 25 C. As to the method: as §1, §2, §3
Experiment [3] shares this target. The experiment is described as follows: SPR ProteOn avidity format, biotinylated human ICOS on NLC chip; calculated on-rate. Here is the method:
as §1, §2
The buffer injection (i.e. 0 nM) was used to double reference the sensorgrams. […]

B1: STIM001_289_LAGA (bispecific antibody, V domains shown, not shown: a dimerising Fc or GST)
VH: QVQVVQSGAEVKKPGASVKVSCKASGYTFSTFGITWVRQAPGQGLEWMGWISAYNGDTNYAQNLQGRVIMTTDTSTSTAYMELRSLRSDDTAVYYCARSSGHYYYYGMDVWGQGTTVTVSS
VL: DIVMTQSPLSLPVTPGEPASISCRSSQSLLHSNEYNYLDWYLQKPGQSPQLLIFLGSNRASGVPDRFSGSGSGTDFTLKITRVEAEDVGIYYCMQSLQTPLTFGGGTKVEIK
Turning to B1, the Kd in experiment [1] stood at 25.4 nM. For the same molecule, in experiment [2], the off-rate constant (koff) was 0.000354 s⁻¹. Besides, the on-rate constant (kon) in experiment [3] is 13900 M⁻¹ s⁻¹.

B2: STIM001_457_LAGA (bispecific antibody, V domains shown, not shown: a dimerising Fc or GST)
VH: B1 VH
VL: B1 VL
notes: LAGA variant of STIM001_457
B2: in experiment [1], the Kd is 10.6 nM. The molecule further registered an off-rate constant (koff) in experiment [2] of 0.000332 s⁻¹. Besides, the kon in experiment [3] was 31300 M⁻¹ s⁻¹.

B3: STIM003_289_LAGA (bispecific antibody, V domains shown, not shown: a dimerising Fc or GST)
VH: EVQLVESGGGVVRPGGSLRLSCVASGVTFDDYGMSWVRQAPGKGLEWVSGINWNGGDTDYSDSVKGRFTISRDNAKNSLYLQMNSLRAEDTALYYCARDFYGSGSYYHVPFDYWGQGILVTVSS
VL: EIVLTQSPGTLSLSPGERATLSCRASQSVSRSYLAWYQQKRGQAPRLLIYGASSRATGIPDRFSGDGSGTDFTLSISRLEPEDFAVYYCHQYDMSPFTFGPGTKVDIK
notes: LAGA variant of STIM003_289
On to B3, for which the Kd in experiment [1] turned out to be 0.6 nM. The off-rate constant (koff) in experiment [2] is 0.000278 s⁻¹. Besides, the kon in experiment [3] was 477000 M⁻¹ s⁻¹.

B4: STIM003_457_LAGA (bispecific antibody, V domains shown, not shown: a dimerising Fc or GST)
VH: B3 VH
VL: B3 VL
notes: LAGA variant of STIM003_457
As for B4, the Kd in experiment [1] was 0.8 nM. The molecule further yielded a koff in experiment [2] of 0.000232 s⁻¹. Further, in experiment [3], the on-rate (kon) was 284000 M⁻¹ s⁻¹.
